{"source": "patent US20190282704A1", "about": "(ZOETIS SERVICES, published 2019)", "binders": {"B1": {"name": "ZIL94 (antibody, V domains shown)", "VH": "EVQLVDSGGDLVKPGGSLRLSCVASGFTFSTYFMSWVRQAPGRGLQWVALISSDGSGTYYADAVKGRFTISRDNAKNTLYLQMNSLRAEDTAMYYCAIFWRAFNDWGQGTLVTVSS", "VL": "QTVVIQEPSLSVSPGGTVTLTCGLNSGSVSTSNYPGWYQQTRGRTPRTIIYDTGSRPSGVPNRFSGSISGNKAALTITGAQPEDEADYYCSLYTDSDILVFGGGTHLTVLR", "notes": "Recombinant fully canine IgG (65_1 isotype); also called CAN-ZIL94"}, "B2": {"name": "ZTS-927 (antibody)", "heavy": "QVLLVQSGAEVRTPGASVKIFCKASGYSFTSYTIHWLRQAPAQGLEWMGNINPTSGYTENNQRFKDRLTLTADTSTNTAYMELSSLRSADTAMYYCARWGFKYDGEWSFDVWGAGTTVTVSSASTTAPSVFPLAPSCGTTSGATVALACLVLGYFPEPVTVSWNSGALTSGVHTFPAVLQASGLYSLSSMVTVPSSRWLSDTFTCNVAHPPSNTKVDKTVRKTDHPPGPKPCDCPKCPPPEMLGGPSIFIFPPKPKDTLSISRTPEVTCLVVDLGPDDSDVQITWFVDNTQVYTAKTSPREEQFNSTYRVVSVLPILHQDWLKGKEFKCKVNSKSLPSPIERTISKAKGQPHEPQVYVLPPAQEELSRNKVSVTCLIKSFHPPDIAVEWEITGQPEPENNYRTTPPQLDSDGTYFVYSKLSVDRSHWQRGNTYTCSVSHEALHSHHTQKSLTQSPGK", "light": "EIQMTQSPSSLSASPGDRVTITCRASQGISIWLSWYQQKPGNIPKVLINKASNLHIGVPSRFSGSGSGTDFTLTISSLEPEDAATYYCLQSQTYPLTFGGGTKLEIKRSDAQPSVFLFQPSLDELHTGSASIVCILNDFYPKEVNVKWKVDGVVQNKGIQESTTEQNSKDSTYSLSSTLTMSSTEYQSHEKFSCEVTHKSLASTLVKSFQRSECQRE"}, "B3": {"name": "ZTS-361 (antibody)", "heavy": "B2 heavy with M242A, L243A, G245A", "light": "B2 light"}, "B4": {"name": "Peptide ZTS-563 (peptide)", "peptide": "CAKVSMPADNFERKNFILTC", "modifications": "linker 1-20 via mT2a; reading uncertain"}, "B5": {"name": "mouse anti IL-31 antibody 11E12 (antibody, V domains shown)", "VH": "QVQLQQSGAELVKPGASVKLSCKASGYTFKYYDINWVRQRPEQGLEWIGWIFPGDGGTKYNETFKGKATLTTDKSSSTAYMQLSRLTSEDSAVYFCARGGTSVIRDAMDYWGQGTSVTVSS", "VL": "DIVLTQSPASLAVSLGQRATISCRASESVDNYGISFMHWYQQKPGQPPKLLIYRASNLESGIPARFSGSGSRTDFTLTINPVETDDVATYYCQQSNKDPLTFGAGTKLELK", "notes": "Mouse monoclonal used for comparison; also called Mu-11E12; MU-11E12"}, "B6": {"name": "ZIL159 (antibody, V domains shown)", "VH": "EVQLVESGGDLVKPAGSLRLSCVASGFTFSSYVMTWVRQAPGKGLQWVAGINSEGSRTAYADAVKGRFTISRDNAKNTLYLQIDSLRAEDTAIYYCATGDIVATGTSYWGQGTLVTVSS", "VL": "SNVLTQPPSVSVSLGQTATISCSGETLNRFYTQWFQQKAGQAPVLVIYKDTERPSGIPDRFSGSSSGNIHTLTISGARAEDEAAYYCKSAVSIDVGVFGGGTHLTVFR", "notes": "Recombinant fully canine IgG (65_1 isotype); also called CAN-ZIL159"}, "B7": {"name": "Peptide ZTS-562 (peptide)", "peptide": "CEISVPADTFERKSFC", "modifications": "constrained through the terminal cysteines; linker only shown in FIG. 13A"}, "B8": {"name": "ZIL69 (antibody, V domains shown)", "VH": "EVQLVESGGDLVKPAGSLRLSCVASGFTFSSYAMKWVRQAPGKGLQWVATINNDGTRTGYADAVRGRFTISKDNAKNTLYLQMDSLRADDTAVYYCTKGNAESGCTGDHCPPYWGQGTLVTVSS", "VL": "SSVLTQPPSVSVSLGQTATISCSGESLNKYYAQWFQQKAGQAPVLVIYKDTERPSGIPDRFSGSSAGNTHTLTISGARAEDEADYYCESAVSSETNVFGSGTQLTVLR", "notes": "Recombinant fully canine IgG (65_1 isotype); also called CAN-ZIL69"}, "B9": {"name": "ZIL171 (antibody, V domains shown)", "VH": "EVQLVESGGDLVKPAGSLRLSCVASGFTFRTYVMNWVRQAPGKGLQWVASINGGGSSPTYADAVRGRFTVSRDNAQNSLFLQMNSLRAEDTAIYFCVVSMVGPFDYWGHGTLVTVSS", "VL": "B8 VL with E25K, N28S, K29Y, A66S, E94D, N96I, S100G, Q103H", "notes": "Recombinant fully canine IgG (65_1 isotype); also called CAN-ZIL171"}, "B10": {"name": "ZIL154 (antibody, V domains shown)", "VH": "EVHLVESGGDLVKPWGSLRLSCVASGFTFSDRGMSWVRQSPGKGLQWVAYIRYDGSRTDYADAVEGRFTISRDNAKNTLYLQMNSLRAEDTAVYYCARWDGSSFDYWGQGTLVTVSS", "VL": "DIVVTQTPLSLSVSPGETASFSCKASQSLLHSDGNTYLDWFRQKPGQSPQRLIYKVSNRDPGVPDRFSGSGSGTDFTLRISGVEADDAGLYYCMQAIHFPLTFGAGTKVELKR", "notes": "Recombinant fully canine IgG (65_1 isotype); also called CAN-ZIL154"}, "B11": {"name": "mouse anti IL-31 antibody 15H05 (antibody, V domains shown)", "VH": "QVQLQQSAAELARPGASVKMSCKTSGYTFTSYTIHWIKQRPGQGLEWIGNINPTSGYTENNQRFKDKTTLTVDRSSNTAYLQLHSLTSEDSAVYFCARWGFKYDGEWSFDVWGAGTTVTVSS", "VL": "DIQMNQSPSSLSASLGDTITVTCRASQGISIWLSWYQQKPGNIPKVLINKASNLHIGVPPRFSGSGSGTHFTLTITSLQPEDIATYYCLQSQTYPLTFGGGTKLEIN", "notes": "Mouse hybridoma monoclonal; also called Mu-15H05; MU-15H05"}}, "key": {"[1]": {"target": "T1, equine IL-31 (Equine_IL31) (equine)", "T1 construct": "Production of the protein used as Biacore surface is not described; also called horse IL-31", "T1 chain": "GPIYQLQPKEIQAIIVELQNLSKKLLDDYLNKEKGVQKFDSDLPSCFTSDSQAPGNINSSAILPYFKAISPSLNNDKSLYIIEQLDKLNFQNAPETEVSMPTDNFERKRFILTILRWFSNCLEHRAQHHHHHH", "assay": "Biacore, IL-31 surface, single antibody concentration"}, "[2]": {"target": "T2, canine IL-31 (Canine_IL31) (canine)", "T2 chain": "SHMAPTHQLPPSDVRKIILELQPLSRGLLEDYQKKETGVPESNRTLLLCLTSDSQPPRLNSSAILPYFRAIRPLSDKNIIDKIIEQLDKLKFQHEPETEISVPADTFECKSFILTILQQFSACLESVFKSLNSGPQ", "assay": "cell-based or functional assay"}, "[3]": {"target": "T3, Peptide ZTS-561 (terminal cysteines constrained with the mT2a linker (CLIPS))", "T3 construct": "Unconjugated constrained peptide; also called canine IL-31 15H05 mimotope ZTS-561", "assay": "Biacore, peptide ZTS-561 immobilised on the surface"}, "[4]": {"target": "B7", "assay": "Biacore, peptide ZTS-562 immobilised on the surface"}, "[5]": {"target": "B4", "assay": "Biacore, peptide ZTS-563 immobilised on the surface"}, "[6]": {"target": "T4, Peptide ZTS-564 (terminal cysteines constrained with the mT2b linker (CLIPS))", "T4 peptide": "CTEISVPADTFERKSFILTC", "assay": "Biacore, peptide ZTS-564 immobilised on the surface"}, "[7]": {"target": "B3", "assay": "cell-based or functional assay"}, "[8]": {"target": "T5, human IL-31 (human, UniProt Q6EBC2 24-164)", "T5 construct": "Production of the protein used as Biacore surface is not described", "T5 sequence": "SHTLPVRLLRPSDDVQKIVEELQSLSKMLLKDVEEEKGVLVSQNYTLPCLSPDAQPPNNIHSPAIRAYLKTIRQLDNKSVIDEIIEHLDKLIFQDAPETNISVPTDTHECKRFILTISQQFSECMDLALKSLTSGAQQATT", "assay": "Biacore, IL-31 surface, single antibody concentration"}}, "note": "Residue numbers refer to the chain shown, from its start. Bridges are numbered along the chain shown (N, C = ends). Where no end group is shown, it is not given here. mT2a = not defined here", "data": [{"binder": "B1", "values": [{"measurement": "binding result", "setting": "[1]", "value": "no binding"}]}, {"binder": "B2", "values": [{"measurement": "IC50, inhibition of canine IL-31-induced STAT3 phosphorylation, canine DH82 cells", "setting": "[2]", "value": 23.2, "unit": "µg/mL"}, {"measurement": "IC50, inhibition of canine IL-31-induced STAT3 phosphorylation, feline FCWF4 cells", "setting": "[2]", "value": 39.6, "unit": "µg/mL"}, {"measurement": "Kd", "setting": "[3]", "value": 1.02, "unit": "nM"}, {"measurement": "Kd", "setting": "[4]", "value": 2.78, "unit": "nM"}, {"measurement": "Kd", "setting": "[5]", "value": 1.48, "unit": "nM"}, {"measurement": "Kd", "setting": "[6]", "value": 4.13, "unit": "nM"}]}, {"binder": "B3", "values": [{"measurement": "IC50, inhibition of canine IL-31-induced STAT3 phosphorylation, canine DH82 cells", "setting": "[2]", "value": 23, "unit": "µg/mL"}, {"measurement": "IC50, inhibition of canine IL-31-induced STAT3 phosphorylation, feline FCWF4 cells", "setting": "[2]", "value": 38.8, "unit": "µg/mL"}]}, {"binder": "B4", "values": [{"measurement": "IC50 of peptide blocking mAb ZTS-361 inhibition of feline IL-31 mediated STAT3 phosphorylation in FCWF-4 cells, unconjugated", "setting": "[7]", "value": 1.74, "unit": "µg/mL"}]}, {"binder": "B5", "values": [{"measurement": "binding result", "setting": "[1]", "value": "no binding"}, {"measurement": "binding result", "setting": "[8]", "value": "no binding"}]}, {"binder": "B6", "values": [{"measurement": "binding result", "setting": "[1]", "value": "no binding"}]}, {"binder": "B7", "values": [{"measurement": "IC50 of peptide blocking mAb ZTS-361 inhibition of feline IL-31 mediated STAT3 phosphorylation in FCWF-4 cells, unconjugated", "setting": "[7]", "value": 1.05, "unit": "µg/mL"}]}, {"binder": "B8", "values": [{"measurement": "binding result", "setting": "[1]", "value": "no binding"}]}, {"binder": "B9", "values": [{"measurement": "binding result", "setting": "[1]", "value": "no binding"}]}, {"binder": "B10", "values": [{"measurement": "binding result", "setting": "[1]", "value": "no binding"}, {"measurement": "binding result", "setting": "[8]", "value": "no binding"}]}, {"binder": "B11", "values": [{"measurement": "binding result", "setting": "[1]", "value": "binds"}, {"measurement": "binding result", "setting": "[8]", "value": "no binding"}]}]}
